Results published in paper PMC5327412, “Characterization of the CD177 interaction with the ANCA antigen proteinase 3” (Scientific Reports, 2017).
Read-outs that look alike come from different tables or passages of the source.

Target: T1, recombinant CD177 (UniProt Q8N6Q3 22-408)
T1 construct: CD177, GPI-anchored neutrophil membrane receptor; recombinant soluble form that lacks the C-terminal GPI-anchor domain; secreted via an N-terminal Ig1 secretion signal peptide; Made from plasmid pTT5; also called rCD177; not shown: Fc (human Ig1), C-terminal, cleaved
T1 sequence (looked up): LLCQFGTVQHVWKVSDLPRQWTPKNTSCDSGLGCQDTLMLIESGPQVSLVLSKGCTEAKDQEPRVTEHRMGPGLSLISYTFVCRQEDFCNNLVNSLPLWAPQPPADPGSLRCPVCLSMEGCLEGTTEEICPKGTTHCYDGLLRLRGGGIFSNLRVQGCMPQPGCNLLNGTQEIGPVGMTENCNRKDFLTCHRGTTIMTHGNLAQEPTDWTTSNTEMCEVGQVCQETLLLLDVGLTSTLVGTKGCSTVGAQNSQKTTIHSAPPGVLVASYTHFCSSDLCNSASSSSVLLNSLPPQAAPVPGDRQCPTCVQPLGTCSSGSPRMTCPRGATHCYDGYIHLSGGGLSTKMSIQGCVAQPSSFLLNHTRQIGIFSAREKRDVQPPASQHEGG
Assay: SPR; CD177 immobilised on a GLH sensor chip by standard amine chemistry, PR3 as soluble analyte; ProteOn XPR36

Q: How did the Kd turn out when “monomeric PR3 hydrophobic patch mutant (Ile217Ala, Trp218Ala) (enzyme)” was run?
A: 57 nM

Q: Which Kd does the source give for recombinant PR3 (enzyme) here?
A: 4.1 nM

B1: neutrophil-derived PR3 (enzyme, UniProt P24158 28-248, looked up)
chain: IVGGHEAQPHSRPYMASLQMRGNPGSHFCGGTLIHPSFVLTAAHCLRDIPQRLVNVVLGAHNVRTQEPTQQHFSVAQVFLNNYDAENKLNDVLLIQLSSPANLSASVATVQLPQQDQPVPHGTQCLAMGWGRVGAHDPPAQVLQELNVTVVTFFCRPHNICTFVPRRKAGICFGDSGGPLICDGIIQGIDSFVIWGCATRLFPDFFTRVALYVDWIRSTLR
notes: Proteinase 3 (PR3), neutrophil serine protease, purified from neutrophils, proteolytically active; also called nPR3; proteinase 3; source: bought: Athens Research&Technology; neutrophil-derived
Q: How did the Kd (both partners purified) turn out when B1 was run?
A: 4.1 nM
